The series deals with the molecule itself. Description: cryo-EM structure; single-particle reconstruction of maltoporin solubilized in DDM, C3 symmetry imposed, 3.0 Å.

Consider one protein from PMC10397807, “Automated simulation-based membrane protein refinement into cryo-EM data” (Biophysical Journal, 2023).

B1: maltoporin (natural protein, E. coli (endogenous in C43(DE3)), UniProt P02943 26-446, looked up)
chain: VDFHGYARSGIGWTGSGGEQQCFQTTGAQSKYRLGNECETYAELKLGQEVWKEGDKSFYFDTNVAYSVAQQNDWEATDPAFREANVQGKNLIEWLPGSTIWAGKRFYQRHDVHMIDFYYWDISGPGAGLENIDVGFGKLSLAATRSSEAGGSSSFASNNIYDYTNETANDVFDVRLAQMEINPGGTLELGVDYGRANLRDNYRLVDGASKDGWLFTAEHTQSVLKGFNKFVVQYATDSMTSQGKGLSQGSGVAFDNEKFAYNINNNGHMLRILDHGAISMGDNWDMMYVGMYQDINWDNDNGTKWWTVGIRPMYKWTPIMSTVMEIGYDNVESQRTGDKNNQYKITLAQQWQAGDSIWSRPAIRVFATYAKWDEKWGYDYTGNADNNANFGKAVPADFNGGSFGRGDSDEWTFGAQMEIWW
notes: maltoporin of Escherichia coli, endogenously expressed; native sample purified from E. coli; model fitted from PDB 1MAL and deposited as PDB 8B7V; source: endogenous, E. coli C43(DE3)
Regarding B1, the binding result was “binds”.
